Measured values: PMC3293900, “Single Cycle Structure-Based Humanization of an Anti-Nerve Growth Factor Therapeutic Antibody” (PLoS ONE, 2012)

What was measured:
[1] = target: T1, human Nerve Growth Factor (Homo sapiens, UniProt P01138); assay: SPR; BIACore; rat mAb αD11 amine-coupled on CM5 chips (1025, 1040, 1280 RU); hNGF 0.29-37.5 nM injected in PBS with 0.005% Surfactant P20, 30 µl/min; triplicate; apparent constants; conditions: both partners purified
T1 construct: human Nerve Growth Factor (beta-NGF), mature growth factor; also called hNGF; human NGF; source: obtained according to Covaceuszach et al. [77]
T1 sequence (P01138 122-241): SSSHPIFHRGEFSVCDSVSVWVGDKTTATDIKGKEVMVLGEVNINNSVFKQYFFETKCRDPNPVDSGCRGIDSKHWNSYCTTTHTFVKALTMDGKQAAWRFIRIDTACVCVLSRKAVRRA

[2] = target: T1, human Nerve Growth Factor; assay: SPR; BIACore; hNGF amine-coupled on CM5 chips (89, 93, 100 RU); Fab hum-αD11 0.39-25 nM injected in HBSEP pH 7.4 with 100 µg/ml BSA, 50 µl/min; triplicate; apparent constants; conditions: both partners purified

Ka [1] | Kd [1] | Binder | Ka [2] | Kd [2]
2.21e+09 M⁻¹ | 451 ± 45 pM | rat anti-NGF monoclonal antibody (mAb) αD11 (antibody, V domains shown, VH of rat αD11; rat heavy chain constant region; the CH1 part is in PDB 1ZAN (Fab); light chain of rat αD11; whole light chain in PDB 1ZAN (Fab αD11); Whole rat IgG; also called parental mAb αD11; rat αD11) VH: QVQLKESGPGLVQPSQTLSLTCTVSGFSLTNNNVNWVRQATGRGLEWMGGVWAGGATDYNSALKSRLTITRDTSKSQVFLKMHSLQSEDTATYYCARDGGYSSSTLYAMDAWGQGTTVTVSA VL: DIQMTQSPASLSASLGETVTIECRASEDIYNALAWYQQKPGKSPQLLIYNTDTLHTGVPSRFSGSGSGTQYSLKINSLQSEDVASYFCQHYFHYPRTFGGGTKLELK |  | 
 |  | Fab fragment of the humanized anti-NGF antibody hum-αD11 (Fab, V domains shown, as the VH of m3 (hum-αD11 VH); constant part of the Fab heavy chain; not described for the Fab provided by PanGenetics; as the Vκ of m3 (hum-αD11 Vκ); positions L46 and L87 mutated to the rat αD11 residue, Kabat numbering; constant part of the Fab light chain; also called Fab hum-αD11; source: kindly provided by PanGenetics UK Ltd) VH: EVQLVESGGGLVQPGGSLRLSCAASGFSLTNNNVNWVRQAPGKGLEWVGGVWAGGATDYNSALKSRFTISRDNSKNTAYLQMNSLRAEDTAVYYCARDGGYSSSTLYAMDAWGQGTLVTVSS VL: DIQMTQSPSSLSASVGDRVTITCRASEDIYNALAWYQQKPGKAPKLLIYNTDTLHTGVPSRFSGSGSGTDYTLTISSLQPEDFATYFCQHYFHYPRTFGQGTKVEIK | 3.4e+10 M⁻¹ | 28.9 ± 4.1 pM
